# Data published in US20220348681A1, “FUSED PROTEIN OF AN ANTIBODY WHICH RECOGNIZES CANCER-CELLS AND A STREPTAVIDIN MUTANT” (THE UNIVERSITY OF TOKYO, priority 2021, published 2022).
# B1: CEA-V2122-del5: fusion of scFv-type anti-CEACAM5 antibody and mutant streptavidin V2122 lacking 11 C-terminal amino acids including 6xHis tag (SEQ ID NO: 18) (protein)
# chain: MKYLLPTAAAGLLLLAAQPAMAQVKLEQSGAEVVKPGASVKLSCKASGFNIKDSYMHWLRQGPGQRLEWIGWIDPENGDTEYAPKFQGKATFTTDTSANTAYLGLSSLRPEDTAVYYCNEGTPTGPYYFDYWGQGTLVTVSSGGGGSGGGGSGGGGSENVLTQSPSSMSVSVGDRVNIACSASSSVPYMHWLQQKPGKSPKLLIYLTSNLASGVPSRFSGSGSGTDYSLTISSVQPEDAATYYCQQRSSYPLTFGGGTKLEIKGGGGSGGGGAEAGITGTWSDQLGDTFIVTAGADGALTGTYENAVGGAESRYVLTGRYDSAPATDGSGTALGWTVAWKNNSKNAHSATTWSGQYVGGADAKINTQWLLTSGTTNANAWKSTLVGHDTFTKVK
# Test: Interaction analysis between CEA-V2122-del5 and modified biotin using Biacore T200 (single-cycle kinetics, bivalent analysis mode)
# Format: binding
# Settings: analyte Psyche J-iodine
# Protocol: The interaction between CEA-V2122-del5 and a modified biotin was analyzed using Biacore T200. The Psyche J-iodine described in Production Example 1 was used herein as a modified biotin.
# The analysis method was specifically as follows. That is, an amine-coupling kit was used, a target value was set to be 3000 RU, and the purified CEA-V2122-del5 was immobilized on Sensor Chip CM5. With regard to the concentrations of the analytes, 2.5E−09 M was two-fold diluted, and 5 types of two-fold serial dilutions including 2.5E-09 M were prepared and used in the measurement. Regarding interaction analysis, data were obtained by single-cycle kinetics analysis. Using Biacore T200 Evaluation Software, version 2.0, the obtained data were subjected to curve fitting in a bivalent analysis mode, and the following values were obtained: ka1=6.3E+03, and kd1=8.0E−06.
# [1] = CEA-V2122-del5 immobilized on Sensor Chip CM5, 5 two-fold serial dilutions from 2.5E-09 M, curve fitting in bivalent analysis mode
molecule,measurement,setting,value
B1,ka1,[1],6.3E+03
same,kd1,[1],8.0E−06
same,KD=kd1/ka1,evaluation value from the bivalent analysis,1.3E−09
